Test results published in patent publication US20150259419A1 (PROTHENA BIOSCIENCES, published 2015).

T1: recombinant hMCAM-His (human, UniProt P43121 24-559)
T1 construct: not shown: His tag
T1 chain: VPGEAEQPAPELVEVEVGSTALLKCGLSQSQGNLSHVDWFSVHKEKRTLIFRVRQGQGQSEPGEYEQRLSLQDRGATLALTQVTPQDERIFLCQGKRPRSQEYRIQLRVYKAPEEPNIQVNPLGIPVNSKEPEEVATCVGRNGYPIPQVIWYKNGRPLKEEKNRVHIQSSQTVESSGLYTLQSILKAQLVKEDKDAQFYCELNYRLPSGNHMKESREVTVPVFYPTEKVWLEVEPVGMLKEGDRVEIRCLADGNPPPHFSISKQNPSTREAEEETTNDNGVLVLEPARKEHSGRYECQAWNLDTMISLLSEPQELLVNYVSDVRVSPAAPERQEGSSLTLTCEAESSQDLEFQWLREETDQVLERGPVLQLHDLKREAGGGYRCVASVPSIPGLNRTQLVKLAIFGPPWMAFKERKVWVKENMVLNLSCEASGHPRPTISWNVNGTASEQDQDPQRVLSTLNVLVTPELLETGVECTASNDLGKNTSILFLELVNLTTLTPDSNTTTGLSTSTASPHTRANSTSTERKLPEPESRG

T2: human MCAM, full length, expressed on transfected cells (human, UniProt P43121 24-646)
T2 construct: CHO cells transfected with the full length human MCAM gene; also called hMCAM; CD146
T2 chain: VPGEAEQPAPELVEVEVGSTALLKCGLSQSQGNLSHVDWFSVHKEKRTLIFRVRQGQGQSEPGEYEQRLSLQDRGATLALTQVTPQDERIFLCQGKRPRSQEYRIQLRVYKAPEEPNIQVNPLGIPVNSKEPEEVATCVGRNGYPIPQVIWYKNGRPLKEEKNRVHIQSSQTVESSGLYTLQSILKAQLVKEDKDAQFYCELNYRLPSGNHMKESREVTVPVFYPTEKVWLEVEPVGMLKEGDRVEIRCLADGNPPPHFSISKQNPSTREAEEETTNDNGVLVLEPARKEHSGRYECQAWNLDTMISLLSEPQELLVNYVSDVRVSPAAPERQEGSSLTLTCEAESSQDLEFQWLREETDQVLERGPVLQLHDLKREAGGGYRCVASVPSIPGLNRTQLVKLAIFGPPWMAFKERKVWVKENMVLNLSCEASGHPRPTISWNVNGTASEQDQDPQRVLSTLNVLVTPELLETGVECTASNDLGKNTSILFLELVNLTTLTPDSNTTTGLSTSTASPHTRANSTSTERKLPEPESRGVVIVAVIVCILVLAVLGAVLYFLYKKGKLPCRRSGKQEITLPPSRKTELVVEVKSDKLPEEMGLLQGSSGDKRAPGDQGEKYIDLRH

T3: human MCAM domain 1 (MCAMhFc domain construct) (human, UniProt P43121 19-129)
T3 construct: also called amino acids 19-129; not shown: human Fc portion (captured on anti-human IgG Fc biosensors)
T3 sequence: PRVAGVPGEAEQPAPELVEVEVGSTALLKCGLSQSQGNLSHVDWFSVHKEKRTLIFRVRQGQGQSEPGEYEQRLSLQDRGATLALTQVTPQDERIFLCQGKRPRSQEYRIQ

T4: full length MCAMhFc protein (extracellular domain of human MCAM fused to human IgG) (human, UniProt P43121 24-559)
T4 construct: also called hMCAM-Fc; Human MCAM-Fc protein; not shown: human IgG (Fc) portion
T4 chain: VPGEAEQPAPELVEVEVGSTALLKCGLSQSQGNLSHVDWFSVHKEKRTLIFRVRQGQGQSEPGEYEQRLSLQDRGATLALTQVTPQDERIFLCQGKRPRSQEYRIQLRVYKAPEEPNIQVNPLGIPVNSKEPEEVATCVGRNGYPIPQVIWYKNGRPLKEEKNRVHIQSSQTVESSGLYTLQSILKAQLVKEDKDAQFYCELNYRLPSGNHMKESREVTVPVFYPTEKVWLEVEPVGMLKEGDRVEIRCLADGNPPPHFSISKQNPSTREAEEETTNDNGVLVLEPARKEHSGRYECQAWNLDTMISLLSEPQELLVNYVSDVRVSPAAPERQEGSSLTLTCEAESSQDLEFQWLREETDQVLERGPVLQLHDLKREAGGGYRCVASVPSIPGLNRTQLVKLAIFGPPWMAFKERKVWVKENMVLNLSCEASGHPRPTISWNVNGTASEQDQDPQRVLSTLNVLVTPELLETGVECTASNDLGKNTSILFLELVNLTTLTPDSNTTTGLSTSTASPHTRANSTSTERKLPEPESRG

T5: human MCAM domain 2 (MCAMhFc domain construct) (human, UniProt P43121 139-242)
T5 construct: not shown: human Fc portion
T5 sequence: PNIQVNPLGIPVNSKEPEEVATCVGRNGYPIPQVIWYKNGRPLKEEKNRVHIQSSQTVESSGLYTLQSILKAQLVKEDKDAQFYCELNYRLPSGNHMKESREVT

T6: combination of human MCAM domains 1 and 2 (MCAMhFc domain construct) (human, UniProt P43121 19-242)
T6 construct: not shown: human Fc portion
T6 sequence: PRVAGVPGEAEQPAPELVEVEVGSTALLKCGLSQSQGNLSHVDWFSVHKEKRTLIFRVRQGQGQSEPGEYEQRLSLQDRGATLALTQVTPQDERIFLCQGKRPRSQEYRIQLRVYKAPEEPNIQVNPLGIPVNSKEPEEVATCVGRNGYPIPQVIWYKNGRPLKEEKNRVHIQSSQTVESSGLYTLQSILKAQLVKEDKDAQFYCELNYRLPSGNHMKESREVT

T7: human MCAM domain 3 (MCAMhFc domain construct) (human, UniProt P43121 244-321)
T7 construct: also called amino acids 244-321; not shown: human Fc portion
T7 sequence: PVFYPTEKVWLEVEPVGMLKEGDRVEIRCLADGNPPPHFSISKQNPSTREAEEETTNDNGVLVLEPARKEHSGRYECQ


Columns and labels:
recombinant hMCAM-His [1] = target: T1, recombinant hMCAM-His; assay: competitive ELISA on hMCAM-His against biotinylated rodent or chimeric 2120; relative to rodent 2120
Description: ELISA plates were coated with recombinant hMCAM-His, and blocked with casein buffer to prevent non-specific binding. Biotinylated rodent or chimeric antibody was added at a subsaturating concentration, in the presence or absence of 3× increasing concentrations of unlabeled competitor (humanized antibody, rodent, or chimeric). After washing to remove unbound antibody, streptavidin HRP was added to allow detection of the biotinylated antibody. The ELISA was developed with TMB substrate and the OD450 was measured. The IC50 of the unlabeled competitor was determined using the GraphPad Prism5 software.

recombinant hMCAM-His [2] = target: T1, recombinant hMCAM-His; assay: ForteBio Octet Red, antibody on anti-human Fc sensors, hMCAMHis analyte, 1:1 fit; relative to rodent 2120
Description: The affinities were measured using the ForteBio Octet Red. Anti-human Fc sensors were used to capture the humanized antibodies, and several concentrations of hMCAMHis analyte were used to determine the affinity using a 1:1 fitting model.

[3] = target: T2, human MCAM, full length, expressed on …; assay: laminin/FACS assay: blocking of laminin 411 binding to hMCAM expressing CHO cells; relative to rodent 2120
Description: Following incubation for 30-45 minutes, the cells were washed and anti-laminin conjugated to AF650 (NovusBio) was added to detect the bound laminin. The cells were run on a flow cytometer to measure the laminin binding signal.

[4] = target: T3, human MCAM domain 1 (MCAMhFc domain …); assay: ForteBio Octet Red, MCAMhFc domains on anti-human IgG Fc biosensors
From the text: (§1) The following protocol was used: ForteBio anti-human IgG Fc biosensors were used to immobilize various MCAMhFc domains including full length MCAMhFc protein on to biosensor surface. […] After loading these samples into a black 96 well plate, the Octet Red was programmed as follows: 60 seconds for baseline #1; 180 seconds for loading various domains; 60 seconds for baseline #2; 180 seconds for association of antibody to domain; and 240 seconds for dissociation of antibody from domain.
(§2) 1. MCAMhFc final concentration@5 ug/ml [0374] […] 3. ForteBio anti-human IgG Fc Capture (AHC) biosensors for kinetics experiments, cat #18-5060 [0376] 4. Block 96 well plate from Greiner Bio-one, cat #655209 [0377] 5. ForteBio Octet Red machine [0378] 6. Fresh tissue culture medium, DMEM with 20% FCS, was used as buffer for dilution

[5] = target: T4, full length MCAMhFc protein …; assay: summary of Examples 2 and 3
[6] = target: T5, human MCAM domain 2 (MCAMhFc domain …); assay: ForteBio Octet Red, MCAMhFc domains on anti-human IgG Fc biosensors
From the text: as §1, §2

[7] = target: T6, combination of human MCAM domains 1 and …; assay: as above
From the text: as §1, §2

[8] = target: T7, human MCAM domain 3 (MCAMhFc domain …); assay: ForteBio Octet Red, MCAMhFc domains on anti-human IgG Fc biosensors, antibody at 5 ug/ml
From the text: as §1, §2

[9] = target: T2, human MCAM, full length, expressed on …; assay: blocking of laminin 411 (20 ug/ml) binding to CHO cells expressing human MCAM, flow cytometry
Description: The 87 independent mouse fusion clones and 26 independent rat fusion clones described in Example 1 above as being capable of (i) binding to human MCAM, and (ii) blocking the interaction between human MCAM and the α-4 chain of laminin were further characterized as follows. First, IC50 quantitation for the ability of the monoclonal antibody to block the binding of human MCAM to the α-4 chain of laminin was determined as follows. CHO cells expressing human MCAM were incubated with an anti-human MCAM antibody (at various concentrations) for 30 minutes at 4 degrees Celsius. […] Unbound laminin was then washed away, and the laminin bound to the surface of the cells was detected with fluorescently labeled anti-laminin antibodies. After washing, the amount of laminin bound to the surface was detected by flow cytometry, and IC50s were calculated based on the mean fluorescent intensity.
Amino acid and nucleic acid sequences of the heavy and light chains of these antibodies, and their hypervariable regions, are provided in SEQ ID NOs:29-92. […] As such, each of these specific monoclonal antibodies was very capable of binding to human MCAM and inhibiting the interaction of cell-expressed human MCAM with its α-4 laminin binding ligand.

Fold over rodent (competitive ELISA IC50) (recombinant hMCAM-His [1])	Fold over rodent (Forte affinity) (recombinant hMCAM-His [2])	Fold over rodent (Forte affinity, second column) (recombinant hMCAM-His [2])	Fold over rodent (Blocking, Expt#1) [3]	Fold over rodent (Blocking, Expt#2) [3]	binding result [4]	binding result [5]	binding result [6]	binding result [7]	binding result [8]	IC50 [9]	Binder
2.4 fold	1.1 fold	1.2 fold	1.2 fold	1.5 fold							h2120_VH5 + h2120_VL3 (antibody, V domains shown, also called h2120VH5VL3; VH5VL3) VH: QVTLKESGPVLVKPTETLTLTCTVSGFSLTSNAVSWVRQPPGKALEWIAAISSGGTTYYNSAFKSRLTISRDTSKSQVVLTMTNMDPVDTATYYCARRYGYGWYFDFWGQGTLVTVSS VL: DIQMTQSPSSLSASVGDRVTINCKASQNIYNSLAWYQQKPGKAPKVLIFNANSLQTGIPSRFSGSGSGTDFTLTISSLQPEDFATYYCQQFYSGYTFGQGTKLEIK
					no binding (tested: 5 ug/ml)						rat anti-human MCAM monoclonal antibody clone 2120.4.19 (antibody, V domains shown, also called m2120) VH: QVQLKESGPGLVQPSQTLSLTCTVSGFSLTSNGVSWVRQPPGKGLEWIAAISSGGTTYYNSAFKSRLSISRNTSKSQVLLKMNSLQTEDTAMYFCARRYGYGWYFDFWGPGTMVTVSS VL: DIRMTQSPSLLSASVGDRVTLNCKASQNIYNSLAWYQQKLGEGPKVLIPNANSLQTGIPSRFSGSGSGTDFTLTISSLQPEDFATYFCQQFYSGYTFGAGTKLELK
					no binding (tested: 5 ug/ml)	binds	no binding (tested: 5 ug/ml)	no binding (tested: 5 ug/ml)	binds	0.307 µg/mL	mouse anti-human MCAM monoclonal antibody clone 1415.1.1 (antibody, V domains shown, Mouse hybridoma antibody) VH: QVQLQQPGAELVQPGAPVKLSCKASGYIFTSYWMNWVKQRPGRGLEWIGRIDPSDSKIHYNQKFKDKATLTVDRSSSTAYIQLGSLTSEDSAVYYCAKEGGLRRGDYAMDYWGQGTSVTVSS VL: DIVMTQSPATLSVTPGDRVSLSCRASQSISDYLHWYQQKSHESPRLLIKYASQSISGIPSRFSGSGSGSDFTLSINSVEPEDVGVYYCQNGHNFPRTFGGGTKLEIK
